Data set [1] has as its target T1, alpha-1,6-fucosyltransferase FUT8 WT (human, UniProt Q9BYC5 1-575).
T1 construct: No chain bears both Myc and 3xFLAG; also called Myc-FUT8; Myc-tagged FUT8; source: HEK293 FUT8KO, transfected, in lysate; not shown: Myc (copy from pcDNA6-mycHisA), C-terminal, kept; His tag (from the vector pcDNA6-mycHisA); 3xFLAG (other copy; from pME-3xFLAG), C-terminal, kept
T1 sequence (looked up): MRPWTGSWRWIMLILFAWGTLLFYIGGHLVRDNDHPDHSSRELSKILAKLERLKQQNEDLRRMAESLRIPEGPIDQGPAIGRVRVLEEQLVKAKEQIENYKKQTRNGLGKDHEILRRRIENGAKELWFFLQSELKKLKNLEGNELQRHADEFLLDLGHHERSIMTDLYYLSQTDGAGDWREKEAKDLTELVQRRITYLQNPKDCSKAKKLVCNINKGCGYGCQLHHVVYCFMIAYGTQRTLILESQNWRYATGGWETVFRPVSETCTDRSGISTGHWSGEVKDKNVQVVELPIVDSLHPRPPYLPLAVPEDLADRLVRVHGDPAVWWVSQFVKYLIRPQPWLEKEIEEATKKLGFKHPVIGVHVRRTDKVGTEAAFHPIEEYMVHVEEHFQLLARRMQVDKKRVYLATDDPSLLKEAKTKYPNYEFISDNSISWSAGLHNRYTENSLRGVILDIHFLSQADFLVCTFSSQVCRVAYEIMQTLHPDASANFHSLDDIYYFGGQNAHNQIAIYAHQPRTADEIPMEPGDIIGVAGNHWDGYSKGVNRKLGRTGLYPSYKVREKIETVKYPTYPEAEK
As to the kind of experiment: co-IP; lysates (TBS, 1% Triton X-100) of HEK293 FUT8KO cells coexpressing Myc-tagged FUT8 WT or mutant with 3xFLAG-FUT8 WT; anti-DYKDDDDK antibody magnetic beads, 4 °C overnight; anti-Myc blot; IP signal divided by input, relative to FUT8 WT. The settings on record: partners not purified.

Data set [2] concerns the molecule itself. As to the kind of experiment: split reporter (BiFC, NanoBiT); NanoBiT; LgBiT and SmBiT fusions coexpressed in HEK293 FUT8KO cells; 0.6 μg of lysate protein (TBS, 1% Triton X-100) with Nano-Glo Live Cell Substrate at RT; luminescence relative to empty-vector (Mock) sample.
Data set [3] deals with the molecule itself. In words: native gel or EMSA; Blue Native PAGE (4% to 16%) of purified soluble His-FUT8, Western blot with anti-FUT8. (In general: A gel shift assay detects complexes by their altered migration in electrophoresis.)

This is an account of results in publication PMC9709245, “The stem region of α1,6-fucosyltransferase FUT8 is required for multimer formation but not catalytic activity” (The Journal of Biological Chemistry, 2022).

B1: FUT8Δhelix 2 (enzyme, human, UniProt Q9BYC5 1-575, looked up)
chain: MRPWTGSWRWIMLILFAWGTLLFYIGGHLVRDNDHPDHSSRELSKILAKLERLKQQNEDLRRMAESLRIPEGPIDQGPNGLGKDHEILRRRIENGAKELWFFLQSELKKLKNLEGNELQRHADEFLLDLGHHERSIMTDLYYLSQTDGAGDWREKEAKDLTELVQRRITYLQNPKDCSKAKKLVCNINKGCGYGCQLHHVVYCFMIAYGTQRTLILESQNWRYATGGWETVFRPVSETCTDRSGISTGHWSGEVKDKNVQVVELPIVDSLHPRPPYLPLAVPEDLADRLVRVHGDPAVWWVSQFVKYLIRPQPWLEKEIEEATKKLGFKHPVIGVHVRRTDKVGTEAAFHPIEEYMVHVEEHFQLLARRMQVDKKRVYLATDDPSLLKEAKTKYPNYEFISDNSISWSAGLHNRYTENSLRGVILDIHFLSQADFLVCTFSSQVCRVAYEIMQTLHPDASANFHSLDDIYYFGGQNAHNQIAIYAHQPRTADEIPMEPGDIIGVAGNHWDGYSKGVNRKLGRTGLYPSYKVREKIETVKYPTYPEAEK
notes: human FUT8; start codon to the 234th base joined to the 316th to 1725th base of the cDNA, so that Helix 2 (Ala79-Arg105) is missing; also called Myc-tagged FUT8 Δhelix 2; source: HEK293 FUT8KO, transfected, in lysate; not shown: Myc, C-terminal, kept
For the molecule B1, the “coprecipitated anti-Myc signal (IP/input) relative to FUT8 WT” value in data set [1] was 0.5 relative to FUT8 WT.

B2: FUT8 Y100A/R105A (enzyme, human, UniProt Q9BYC5 1-575, looked up)
chain: MRPWTGSWRWIMLILFAWGTLLFYIGGHLVRDNDHPDHSSRELSKILAKLERLKQQNEDLRRMAESLRIPEGPIDQGPAIGRVRVLEEQLVKAKEQIENAKKQTANGLGKDHEILRRRIENGAKELWFFLQSELKKLKNLEGNELQRHADEFLLDLGHHERSIMTDLYYLSQTDGAGDWREKEAKDLTELVQRRITYLQNPKDCSKAKKLVCNINKGCGYGCQLHHVVYCFMIAYGTQRTLILESQNWRYATGGWETVFRPVSETCTDRSGISTGHWSGEVKDKNVQVVELPIVDSLHPRPPYLPLAVPEDLADRLVRVHGDPAVWWVSQFVKYLIRPQPWLEKEIEEATKKLGFKHPVIGVHVRRTDKVGTEAAFHPIEEYMVHVEEHFQLLARRMQVDKKRVYLATDDPSLLKEAKTKYPNYEFISDNSISWSAGLHNRYTENSLRGVILDIHFLSQADFLVCTFSSQVCRVAYEIMQTLHPDASANFHSLDDIYYFGGQNAHNQIAIYAHQPRTADEIPMEPGDIIGVAGNHWDGYSKGVNRKLGRTGLYPSYKVREKIETVKYPTYPEAEK
notes: human FUT8 with two point mutations in Helix 2 of the stem region; also called Myc-tagged FUT8 Y100A/R105A; source: HEK293 FUT8KO, transfected, in lysate; not shown: Myc, C-terminal, kept
On to B2, for which the “coprecipitated anti-Myc signal (IP/input) relative to FUT8 WT” value in data set [1] was 1.56 relative to FUT8 WT.

B3: FUT8 stem (N-terminal part of FUT8, cytosolic region to stem region) fused with LgBiT or SmBiT (domain or fragment, human, UniProt Q9BYC5 1-108, looked up)
chain: MRPWTGSWRWIMLILFAWGTLLFYIGGHLVRDNDHPDHSSRELSKILAKLERLKQQNEDLRRMAESLRIPEGPIDQGPAIGRVRVLEEQLVKAKEQIENYKKQTRNGL
notes: human FUT8, 1st to 326th base of the cDNA: cytosolic region, transmembrane region and stem region (stem ends at Leu108); Two differently tagged copies of the same fragment; no chain bears both LgBiT and SmBiT; The 326th base is two bases past codon 108; also called FUT8 stem-LgBiT; FUT8 stem-SmBiT; source: HEK293 FUT8KO, transfected, in lysate; not shown: LgBiT (one copy; vector pBiT1.1-C …)
Regarding B3, in data set [2], the “relative luminescence (NanoBiT, relative to Mock)” value is 165 relative to Mock.

B4: FUT8Δstem-GSx22 (enzyme, human)
chain: MRPWTGSWRWIMLILFAWGTLLFYIGGHLGSGSGSGSGSGSGSGSGSGSGSGSGSGSGSGSGSGSGSGSGSGSGKDHEILRRRIENGAKELWFFLQSELKKLKNLEGNELQRHADEFLLDLGHHERSIMTDLYYLSQTDGAGDWREKEAKDLTELVQRRITYLQNPKDCSKAKKLVCNINKGCGYGCQLHHVVYCFMIAYGTQRTLILESQNWRYATGGWETVFRPVSETCTDRSGISTGHWSGEVKDKNVQVVELPIVDSLHPRPPYLPLAVPEDLADRLVRVHGDPAVWWVSQFVKYLIRPQPWLEKEIEEATKKLGFKHPVIGVHVRRTDKVGTEAAFHPIEEYMVHVEEHFQLLARRMQVDKKRVYLATDDPSLLKEAKTKYPNYEFISDNSISWSAGLHNRYTENSLRGVILDIHFLSQADFLVCTFSSQVCRVAYEIMQTLHPDASANFHSLDDIYYFGGQNAHNQIAIYAHQPRTADEIPMEPGDIIGVAGNHWDGYSKGVNRKLGRTGLYPSYKVREKIETVKYPTYPEAEK
notes: human FUT8, start codon to the 87th base of the cDNA; the stem region Val30-Leu108 is replaced; glycine-serine repeat of 44 amino acids; human FUT8, 325th to 1725th base of the cDNA (coiled-coil domain to the C terminus); Anti-Myc blots show two bands (full size and about 50 kDa); also called Myc-tagged FUT8Δstem-GSx22; source: HEK293 FUT8KO, transfected, in lysate; not shown: Myc, C-terminal, …
In the case of B4, the “coprecipitated anti-Myc signal (IP/input) relative to FUT8 WT” value in data set [1] was 0.127 relative to FUT8 WT.

B5: FUT8Δstem-GSx40 (enzyme, human)
chain: MRPWTGSWRWIMLILFAWGTLLFYIGGHLGSGSGSGSGSGSGSGSGSGSGSGSGSGSGSGSGSGSGSGSGSGSGSGSGSGSGSGSGSGSGSGSGSGSGSGSGSGSGSGSGKDHEILRRRIENGAKELWFFLQSELKKLKNLEGNELQRHADEFLLDLGHHERSIMTDLYYLSQTDGAGDWREKEAKDLTELVQRRITYLQNPKDCSKAKKLVCNINKGCGYGCQLHHVVYCFMIAYGTQRTLILESQNWRYATGGWETVFRPVSETCTDRSGISTGHWSGEVKDKNVQVVELPIVDSLHPRPPYLPLAVPEDLADRLVRVHGDPAVWWVSQFVKYLIRPQPWLEKEIEEATKKLGFKHPVIGVHVRRTDKVGTEAAFHPIEEYMVHVEEHFQLLARRMQVDKKRVYLATDDPSLLKEAKTKYPNYEFISDNSISWSAGLHNRYTENSLRGVILDIHFLSQADFLVCTFSSQVCRVAYEIMQTLHPDASANFHSLDDIYYFGGQNAHNQIAIYAHQPRTADEIPMEPGDIIGVAGNHWDGYSKGVNRKLGRTGLYPSYKVREKIETVKYPTYPEAEK
notes: human FUT8, start codon to the 87th base of the cDNA; the stem region Val30-Leu108 is replaced; glycine-serine repeat of 80 amino acids; human FUT8, 325th to 1725th base of the cDNA (coiled-coil domain to the C terminus); Anti-Myc blots show two bands (full size and about 50 kDa); also called Myc-tagged FUT8Δstem-GSx40; source: HEK293 FUT8KO, transfected, in lysate; not shown: Myc, C-terminal, …
On to B5, for which the “coprecipitated anti-Myc signal (IP/input) relative to FUT8 WT” value in data set [1] was 0.122 relative to FUT8 WT.

B6: soluble His-FUT8 (Arg68-Lys575) (domain or fragment, human, UniProt Q9BYC5 68-575, looked up)
chain: RIPEGPIDQGPAIGRVRVLEEQLVKAKEQIENYKKQTRNGLGKDHEILRRRIENGAKELWFFLQSELKKLKNLEGNELQRHADEFLLDLGHHERSIMTDLYYLSQTDGAGDWREKEAKDLTELVQRRITYLQNPKDCSKAKKLVCNINKGCGYGCQLHHVVYCFMIAYGTQRTLILESQNWRYATGGWETVFRPVSETCTDRSGISTGHWSGEVKDKNVQVVELPIVDSLHPRPPYLPLAVPEDLADRLVRVHGDPAVWWVSQFVKYLIRPQPWLEKEIEEATKKLGFKHPVIGVHVRRTDKVGTEAAFHPIEEYMVHVEEHFQLLARRMQVDKKRVYLATDDPSLLKEAKTKYPNYEFISDNSISWSAGLHNRYTENSLRGVILDIHFLSQADFLVCTFSSQVCRVAYEIMQTLHPDASANFHSLDDIYYFGGQNAHNQIAIYAHQPRTADEIPMEPGDIIGVAGNHWDGYSKGVNRKLGRTGLYPSYKVREKIETVKYPTYPEAEK
notes: human FUT8, soluble form from Arg68 to the C terminus (Lys575); Plasmid pcDNA-IH/FUT8; also called purified soluble FUT8; recombinant soluble FUT8; source: COS7, transfected, purified from the culture medium (Ni2+ column, NAP-5 desalting)
As for B6, in data set [3], the binding result is on record as “binds”.

B7: FUT8Δhelix 1 (enzyme, human, UniProt Q9BYC5 1-575, looked up)
chain: MRPWTGSWRWIMLILFAWGTLLFYIGGHLVRDNDHRIPEGPIDQGPAIGRVRVLEEQLVKAKEQIENYKKQTRNGLGKDHEILRRRIENGAKELWFFLQSELKKLKNLEGNELQRHADEFLLDLGHHERSIMTDLYYLSQTDGAGDWREKEAKDLTELVQRRITYLQNPKDCSKAKKLVCNINKGCGYGCQLHHVVYCFMIAYGTQRTLILESQNWRYATGGWETVFRPVSETCTDRSGISTGHWSGEVKDKNVQVVELPIVDSLHPRPPYLPLAVPEDLADRLVRVHGDPAVWWVSQFVKYLIRPQPWLEKEIEEATKKLGFKHPVIGVHVRRTDKVGTEAAFHPIEEYMVHVEEHFQLLARRMQVDKKRVYLATDDPSLLKEAKTKYPNYEFISDNSISWSAGLHNRYTENSLRGVILDIHFLSQADFLVCTFSSQVCRVAYEIMQTLHPDASANFHSLDDIYYFGGQNAHNQIAIYAHQPRTADEIPMEPGDIIGVAGNHWDGYSKGVNRKLGRTGLYPSYKVREKIETVKYPTYPEAEK
notes: human FUT8; start codon to the 105th base joined to the 202nd to 1725th base of the cDNA, so that Helix 1 (Pro36-Leu67) is missing; also called Myc-tagged FUT8 Δhelix 1; source: HEK293 FUT8KO, transfected, in lysate; not shown: Myc, C-terminal, kept
With B7, the “coprecipitated anti-Myc signal (IP/input) relative to FUT8 WT” value in data set [1] was 0.0934 relative to FUT8 WT.
